Results taken from patent US20240075114A1.

Target: PF-4 in cynomolgus monkey plasma (cynomolgus monkey)
Test: aligned sandwich ELISA, cyno plasma

With “monoclonal anti-HPF4 antibody (Abcam cat. no.: ab49735)” as the substance, how does the AUC Ratio vs anti-HPF4 read?
The AUC Ratio vs anti-HPF4 was 1.

And the anti-HPF4 AUC mean?
Its anti-HPF4 AUC mean is 2.9.
